# Measurements taken from patent publication US20250297003A1.
# Target: sialic acid-binding immunoglobulin-like lectin-9 (Siglec-9), human, on mast cells (human) (UniProt Q9Y336)
# Assay: cell-based or functional assay
# Sequence of UniProt Q9Y336 (Q9Y336 18-463): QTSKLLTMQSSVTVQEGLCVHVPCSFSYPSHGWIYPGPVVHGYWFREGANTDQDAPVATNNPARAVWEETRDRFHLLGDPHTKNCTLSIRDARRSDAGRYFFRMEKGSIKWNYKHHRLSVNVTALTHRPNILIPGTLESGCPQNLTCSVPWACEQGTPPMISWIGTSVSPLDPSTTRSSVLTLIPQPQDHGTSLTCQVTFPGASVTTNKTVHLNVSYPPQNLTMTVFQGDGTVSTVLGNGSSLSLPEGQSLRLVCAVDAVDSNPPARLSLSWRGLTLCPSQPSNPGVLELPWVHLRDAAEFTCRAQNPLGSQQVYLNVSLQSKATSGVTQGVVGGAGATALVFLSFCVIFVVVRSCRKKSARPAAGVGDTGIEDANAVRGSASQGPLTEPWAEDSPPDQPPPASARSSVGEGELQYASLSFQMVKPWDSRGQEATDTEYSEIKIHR
substance,measurement,value
"mouse anti-human Siglec-9 monoclonal antibody (clone 191240, R&D Systems)",inhibition of MCP-1 release by HSCMCs (Siglec-9 co-crosslinked with FcεRI by a secondary antibody),46.5%
same,"percentage of surface Siglec-9 signal lost (HSCMCs, 24 h, delayed secondary staining)",30%
same,"percentage of surface Siglec-9 signal lost (LAD2 cells, 1 h, delayed secondary staining)",30%
